{"source": "patent US20070154481A1", "about": "(UCB, published 2007)", "binders": {"B1": {"name": "CA030-00240.g1 whole IgG4 (antibody, V domains shown)", "VH": "EVQLVESGGGLVQPGGSLRLSCAASGFNFNDYFMNWVRQAPGKGLEWVAQMRNKNYQYGTYYAESLEGRFTISRDDSKNSLYLQMNSLKTEDTAVYYCARESYYGFTSYWGQGTLVTVSS", "VL": "DIQMTQSPSSLSASVGDRVTITCQASQDIGISLSWYQQKPGKAPKLLIYNANNLADGVPSRFSGSGSGTDFTLTISSLQPEDFATYYCLQHNSAPYTFGQGTKLEIKR", "notes": "Made in CHO cells; also called CA030-240.g1; CA030_240.g1"}}, "key": {"[1]": {"biological_target": "T1, Recombinant cynomologous monkey IL-6 (cynomolgus monkey, UniProt P79341 28-212, limits assumed)", "T1 sequence (looked up)": "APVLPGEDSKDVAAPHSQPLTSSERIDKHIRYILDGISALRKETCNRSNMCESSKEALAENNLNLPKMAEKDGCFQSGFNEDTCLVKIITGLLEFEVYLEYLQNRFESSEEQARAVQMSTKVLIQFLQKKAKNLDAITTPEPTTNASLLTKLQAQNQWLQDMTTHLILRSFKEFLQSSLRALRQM", "assay": "cell-based or functional assay"}, "[2]": {"biological_target": "T2, Recombinant Rhesus monkey IL-6 (rhesus monkey, UniProt P51494 28-212, limits assumed)", "T2 sequence (looked up)": "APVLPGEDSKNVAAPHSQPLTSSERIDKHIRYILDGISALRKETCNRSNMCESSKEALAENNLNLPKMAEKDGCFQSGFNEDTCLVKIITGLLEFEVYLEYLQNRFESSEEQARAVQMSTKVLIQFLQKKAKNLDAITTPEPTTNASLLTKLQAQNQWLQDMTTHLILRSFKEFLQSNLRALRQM", "assay": "cell-based or functional assay"}, "[3]": {"biological_target": "Human mammalian-derived IL-6 (human, UniProt P05231 30-212)", "assay": "cell-based or functional assay"}, "[4]": {"biological_target": "T3, Recombinant human IL-6 (human, UniProt P05231 29-212)", "assay": "cell-based or functional assay"}, "[5]": {"biological_target": "T3, Recombinant human IL-6", "assay": "BIAcore 3000; mean of the two determinations of Table 1.1", "description": "(§1) BIA (Biamolecular Interaction Analysis) was performed using a BIAcore 3000 (BIAcore AB). Affinipure F(ab′)₂ Fragment goat anti-human IgG, Fc fragment specific (Jackson ImmunoResearch) was immobilised on a CM5 Sensor Chip via amine coupling chemistry to a capture level of ≈5000 response units (RUs). HBS-EP buffer (10 mM HEPES pH 7.4, 0.15 M NaCl, 3 mM EDTA, 0.005% Surfactant P20, BIAcore AB) was used as the running buffer with a flow rate of 10 μl/min. A 10 μl injection of CA030₋240.g1 at 4 μg/mL was used for capture by the immobilised anti-human IgG-Fc. Human IL-6 was titrated over the captured CAO30₋240.g1 at various concentrations at a flow rate of 30 μL/min. The surface was regenerated by a 10 μL injection of 40 mM HCl, followed by a 5 μL injection of 5 mM NaOH at a flowrate of 10 μL/min.\n(§2) Background subtraction binding curves were analysed using the BIAevaluation software (version 3.2) following standard procedures. Kinetic parameters were determined from the fitting algorithm.\nOne batch of CA030₋240.g1 was used in this study."}, "[6]": {"biological_target": "T3, Recombinant human IL-6", "assay": "BIAcore 3000; IgG4 captured by anti-human Fc F(ab')2, human IL-6 as analyte", "description": "as §1, §2"}}, "note": "“And” between values parts separate entries of the source, which are not always exact repeats. Equal values may be shown once."}
{"binder": "B1", "values": [{"measurement": "ND50, inhibition of IL-6 induced proliferation of T1165 cells", "setting": "[1]", "value": "5.4 ng/ml and 35.6 pM"}, {"measurement": "ND50, inhibition of IL-6 induced proliferation of T1165 cells", "setting": "[2]", "value": "2.2 ng/ml and 14.5 pM"}, {"measurement": "ND50, inhibition of IL-6 induced proliferation of T1165 cells", "setting": "[3]", "value": "3.6 ng/ml and 23.8 pM"}, {"measurement": "ND50, inhibition of IL-6 induced proliferation of T1165 cells", "setting": "[4]", "value": "1.1 ng/ml and 7.26 pM"}, {"measurement": "Kd", "setting": "[5]", "value": 9.76, "unit": "pM"}, {"measurement": "Kd", "setting": "[6]", "value": "10.5 pM and 9.02 pM"}, {"measurement": "koff", "setting": "[6]", "value": "7.68e-06", "unit": "s⁻¹"}, {"measurement": "kon", "setting": "[6]", "value": "731000 M⁻¹ s⁻¹ and 852000 M⁻¹ s⁻¹"}]}
